This is an account of results in a protein production outcome set (Wang et al. 2014).

The nature of the series: label from the status in PepcDB records.
In the case of “GDAQAGLVLLHGRGASAQGMLQLADDLDVPDIAHLAPQARMRSWYPQSFMAPRDQNEPELASALATIGDVLGRLADAGIGPARTVLLGFSQGACLATTYAAQTPQRYGGVVGLSGGLIGPDGASFDYEGSLDATPVFLGCSDQDPYIPRARVAETADVLRALNADVTSRIYEGLGHTINDAERQHARSLLRRCVD”, the protein production entry was “failed”.
“GEEDWVLPSEVEVLESIYLDELQVIKGNGRTSPWEIYITLHPATAEDQDSQYVCFTLVLQVPAEYPHEVPQISIRNPRGLSDEQIHTILQVLGHVAKAGLGTAMLYELIEKGKEILTDNNIPHGQCVICLYGFQEKEAFTKTPCYHYFHCHCLARY”: the protein production result is given as “failed”.
Turning to “GEKTFTQRSRLFVGNLPPDITEEEMRKLFEKYGKAGEVFIHKDKGFGFIRLETRTLAEIAKVELDNMPLRGKQLRVRFACHSASLT”, the protein production entry was “not failed”.
Regarding “GERPEPVFDAFADRLAEVAAVPYAMVNFIDENRQFFAGLHAPDGTGSGGRPAADGAEPPDVRRYMARDYGFCPHVVVRRKALVLEDVCDYPRFAGNPVVDEIGIRSYLGAPLIDRTGIALGTICVVDIEPRPWGRAGLETIKALAAELVEQIGRRESGGI”, the protein production result is recorded as “failed”.
“GERRIPESRILRREVVEATSAVAAALQIPARAPVIEMTRVRLIDGAPMLAEEIWLPYDRFAAFSRLELDSIGDLLYPVYEAHCNQIVASATETLTVEAIGPAHARLLRIEPGTPAVVIERLAYGYDRRPLEWRRSRGPASEFIYQAEIR”: the protein production result is “failed”.
In the case of “GERRKDRPYVEEPRHVKVQKGSEPLGISIVSGEKGGIYVSKVTVGSIAHQAGLEYGDQLLEFNGINLRSATEQQARLIIGQQCDTITILAQYNPHVHQLSSHSR”, the protein production entry is recorded as “not failed”.
As to “GGRRWNWVQSWPVWKYFKEYFPICLVKTQDLDPGHNYIFGFHPHGIFVPGAFGNFCTKYSDFKKLFPGFTSYLHVAKIWFCFPLFREYLMSNGPVSVSKESLSHVLSKDGGGNVSIIVLGGAKEALEAHPGTFTLCIRQRKGFVKMALTHGASLVPVFSFGENDLYKQINNPKGSWLRTIQDAMYDSMGVALPLIYARGIFQHYFGIMPYRKLIYTVVGRPIPVQQILNPTSEQIEELHQTYLEELKKLFNEHKGKYGIPEHETLVFK”, the protein production entry is “failed”.
Take “GGTSNEVAQFLSKENQVIVRMRGLPFTATAEEVVAFFGQHCPITGGKEGILFVTYPDGRPTGDAFVLFACEEYAQNALRKHKDLLGKRYIELFRSTAAEVQQVLNRFSSA”: the protein production result was “not failed”.
As for “GHFPRACVSSKNLMEKECCPPWSGDRSPCGQLSGRGSCQNILLSNAPLGPQFPFTGVDDRESWPSVFYNRTCQCSGNFMGFNCGNCKFGFWGPNCTERRLLVRRNIFDLSAPEKDKFFAYLTLAKHTISSDYVIPIGTYGQMKNGSTPMFNDINIYDLFVWMHYYVSMDALLGGSEIWRDIDFAHEAPAFLPWHRLFLLRWEQEIQKLTGDENFTIPYWDWRDAEKCDICTDEYMGGQHPTNPNLLSPASFFSSWQIVCSRLEEYNSHQSLCNGTPEGPLRRNPGNHDKSRTPRLPSSADVEFCLSLTQYESGSMDKAANFSFRNTLEGFASPLTGIADASQSSMHNALHIYMNGTMSQVQGSANDPIFLLHHAFVDSIFEQWLRRHRPLQEVYPEANAPIGHNRESYMVPFIPLYRNGDFFISSKDLGYDYSYLQDSDPDSFQDYIKSYLEQASRIWSWLLGAAMVGAVLTALLAGLVSLLCRHKRKQLPEEKQPLLMEKEDYHSLYQSHL”, the protein production result was “failed”.
As for “GHMHTPFIVALDFPSKQEVERFLRPFAGTPLFVKVGMELYYQEGPAIVAFLKEQGHAVFLDLKLHDIPNTVKQAMKGLARVGADLVNVHAAGGRRMMEAAIEGLDAGTPSGRMRPRCIAVTQLTSTDERMLHEELWISRPLVETVAHYAALAKESGLDGVVCSANEAAFIKERCGASFLAVTPGIRFADDAAHDQVRVVTPRKARALGSDYIVIGRSLTRAADPLRTYARLQHEWNGGERESTTPT”, the protein production entry is “not failed”.
Regarding “GHMYETIRYEVKGQVAWLTLNRPDQLNAFTEQMNAEVTKALKQAGADPNVRCVVITGAGRAFCAGEDLSGVTEEMDHGDVLRSRYAPMMKALHHLEKPVVAAVNGAAAGAGMSLALACDFRLLSEKASFAPAFIHVGLVPDAGHLYYLPRLVGRAKALELAVLGEKVTAEEAAALGLATKVIPLSDWEEEVKQFAERLSAMPTKAIGLIKRLLRESEETTFDRYLEREAECQRIAGLTSDHREGVKAFFEKRKPLFQGN”, the protein production entry is listed as “not failed”.
With “GKFGFNDAVGHPKTLKGAAYGRFANSFNLANNKISMDPDGNWMNKIYNEAELAEMDGLNYNWLDEAWSGAFTMNHSVNVSGGSEKATYFAGASYYTQGANLGKQDYNRWNFRAGVDIKLTSDLKFSATIAGNQQETTSSFTKGLSNLNGYGGTKPGESGDYLVLAHMPNYLPWEITLDDGNTYYTSPLLNSYSSAGNATSGNKMSTWNYFAMENNDGSYSTNDNFSYDANFSVTYAVPFIKGLSFKGSYALKRSASDSEQAFMPFTLAYLKASDALTPGNRFYSDHPSVSDYQLKEFTGSTRVVYSDQMAKNEQLNFYVNYEGKFGKHSIAAMAAVEKMQAYMHSKRMLFNNPDPDGYLGTSPSAGAMDTGNSITYKYKQGSLSYLGRVSYNYADKYLFQFLFRSDASTKFAPANYWGFFPGVSVGWVASEEEFMKKLLPSWFEYMKVRFSWGRTGKDNIKAWGWKQLYSLDPSRGYGFGSNGGILQTGIKPGATPNPDAHWDNTDKFNLGFDLRFLNNRLSATVDVYYDINSDILNQNIGGIIGTPIFAGGALTEVNFGRIDAFGSEFSLNWRDKIDQVKYNIGVNFGFNGNRVREWPQSAPSYIQENSVREGASTIFPTYGYKVWRGTSSGDGILRNSDDIENYWNYLSANAEAAGTSPEYLGVKDASQLKPGMLAYQDLGGVLNEDGTQSGPDGRIAKTQDYAKLNKSGKTYGFTTKLGAEWKGISFNMMIATSWGGYRQIDVNKITTSSGDMLWTPDSFWEDMFDERNNTTGKYPNLGLDNRISGSVIAPSDFWSISTFRCYIRNLSIGYTLPKAWLSPLKIQSAKLSLTGNNLW”, the protein production entry was “failed”.
Take “GKGKNIIVLHLESFQQFLIDYKLKEGDKEYEVTPFINSLYHSNATLAFPNFFHQVKAGKTSDAETMMENSLFGLNSGSFMVNYGGENTQFATPSILAQKGGYTSAVFHGNVGTFWNRNNAYKQWGYNYFFDSSYFSKQNSKNSFQYGLNDKYMFKDSIKYLEQMQQPFYTKFITVSNHYPYTSLKGESSEEGFPLAKTDDETINGYFATANYLDAALKSFFDYLKATGLYDNSIFVLYGDHYGISNSRNSSLAPLLGKDSETWSEYDNAMLQRVPYMIHIPGYTNGSIKETFGGEIDALPTLLHILGIDTSQFVQLGQDLLSPQNSQIVAQRTSGTYMTPEYTNYSGRLYNTQTGLEIT”: the protein production entry is on record as “failed”.
As for “GKLFEPYEHMVIDIPSEYQGNVTQLMAARKGQMLSMDNISDEWVRMEYKVPARGLISFRTMFMTETRGTGIANSYSEGLDEWAGEIKGRATGSLVADRSGQITAYALQQLADRGNFFVEPGTE”, the entry is “failed”; as for “GKVSIPSIVYDIVRKNGGNKILLVGNGMLASEIAPYFSYPQYKVTVAGRNIDHVRAFAEKYEYEYVLINDIDSLIKNNDVIITATSSKTPIVEERSLMPGKLFIDLGNPPNIERGNNVITLDEIYEISKKNEMLREEKINQ”, “not failed”.
On to “GLGGFTRTRNKGKSNVIDMIQKYIESKGMPIENWDITVGYCTNLEEAEKYRDDVEAQLGVKLLERREDFKTRISIISGCHTGPYALGIACIPKYTTIRL”, for which the protein production entry is recorded as “not failed”.
“GLINTHAHVGMSASKGLFDDVDLDSFLKKTFEYDSDRTSTGIFNSAKLGMYEMIGNGITAFVDLYYSEDIIAKAAEEIGIRAFLSWVTLDKELTTQIGDPVENAENFIRNHVGNKYVVPSVGVQGIYVANDDTFRRAMDLAEKYGTILHMHLSETRKEVYDAVKKLGERPIEHLHNIGILNKRVLAAHCVWATYHEVRLLSKDGVNVSWNSISNFKLGTGGIPPIPEMMRENVNVTIGTDSNGSNNSLDMFQAMKFSAISVKNYRWDASLMKAQEILDMATRNAARALQLNAG”: the protein production result is “failed”.
As to “GMEGLVMNTRRALFADWRVREAMLLAFDFDLINRTLTGGAEPRIASYFSNSALGMEAGAPATGRERALLEPFAADLLPGTLDGYALPATHGASNRGNLRKAARLLSEAGWRIEDGMLEGPGGTPFAFEILLPQGADAMIAASIIYRQALTRLGISARITTVDPAQFKQRVDNQDFDMTSFLRSLTLSPGNEQLLYWSAEDKDLPGSRNLMGMESPAAEAVIRHMLATDDAEEFQASVRALDRVLTAGRYVIPMWYSR”, the protein production result is on record as “failed”.
Turning to “GMTTRVLALDALVPIVAADNPVPRVSTPDLARALSGEISNWKELGGPDMPLVLHALARDISLEAALEARLGRPIAAEITHPDLASLAAAVARDPYALAITGQTARGAARVLPLTDSCGFPLVPSPLAVKSED”, the protein production entry is recorded as “failed”.
As for “GNPKLKDLYIRPNIVTKRMTGSLEAHSNGFRYISVRGDKVDILYNNIKSAFFQPCDGEMIILLHFHLKYAIMFGKKKHVDVQFYTEVGEITTDLG”, the entry is “failed”; as for “GQYALTNGDPLNGHCYLSGYISLLLRAEPYPTSRYGSQCMQPNNIMGIENICELAARLLFSAVEWARNIPFFPDLQITDQVSLLRLTWSELFVLNAAQCSMPLHVAPLLAAAGLHASPMSADRVVAFMDHIRIFQEQVEKLKALHVDSAEYSCLKAIVLFTSDACGLSDAAHIESLQEKSQCALEEYVRSQYPNQPSRFGKLLLRLPSLRTVSSSVIEQLFFVRLVGKTPIETLIRDMLLSGSSFNWPYMSIQCS”, “failed”; as for “GRAPRNGEKVLVEFVSANPTGPLHVGHARQAALGDAICRLYDASGWDVTREFYYNDAGNQIDNLAISVQARGRGIAPDAPDYPADGYKGDYIVEIARDFAARKSVQASDGQPVTATGDLDSLDDIRAFAVAYLRREQDLDLQAFGLAFDNYFLESSLYASGRVQETVDTLVAKGHTYEEGGALWLRTTELGTGDDKDRVMRKSEGGYTYFVPDVAYHKVKWERGFHHAVNIQGSDHHGTVARVRAGLQGLAGIPKDFPAYVLHKMVKVMRGGEEVKISKRAGSYVTMRDLIDWVGRDAVRYFLIQRRADTEFVFDIDLALSKSDENPVYYIQYAHARICTMIGNSGA”, “failed”.
For “GRLRTDAVRAFCTTIVEATAPYACAFKPNFAFFEALGPAGLTVLDQVVTTIPDDCLVLGDAKRGDIGHSARHYAASIYEELGLDACTVSPYLGRDSVMPFLEHEGTCTFVLARTSNDGAADLQEACTCDGTPLYRHVARRVQAWNADAPGGAGLVVGATAPAALQDLRSLCPSLPFLVPGVGAQGGDAAAVMDAAATDEGPVLVNSSRSILYASEGPNYANAAADAARALRDALNG”, the protein production result is “failed”.
“GSGATSAAGKPQETFLDFNESPYGPSAKARAAMQRAAALCGRYDYDAQDALVGLFAKQNGIPAECVHAYCGSRQPLQYAVAAFTGKERGLVIADPSYDSVVGAAQAQGAKVAAVPLDAEAAHDIERMLAAAQRDAGLIYICNPNNPTGTLTPHERIVRAIERKPERSVVLVDEAYIHFSDAPSVVGLAVQRQDVLVLRTFSKLYGMAGARLGLAIGHPQLLARLERFGGHNVVPSPTAHAGLESLRDDDLVPRRKQQNAEVRERTIAWLRQQGFRCTASQSNCFMVDMRRPAELVIAELEKQRVHVGRPWASWPNWVRVTVGSEEEMQAFR”: the protein production result is listed as “failed”.
In the case of “GSPDPEIFRQRFRQFGYQDSPGPREAVSQLRELCRLWLRPETHTKEQILELVVLEQFVAILPKELQTWVRDHHPENGEEAVTVLEDLESELDD”, the protein production result is recorded as “not failed”.
